Drawing on patent US20140127815A1, this text covers ristocetin agglutination reaction of human peripheral blood platelets (maximum light transmission) for one substance.

The experiment concerns the target GPIba (CD42b) (human) (UniProt P07359). As to the kind of experiment: cell-based or functional assay.
Chain of UniProt P07359 (P07359 17-652): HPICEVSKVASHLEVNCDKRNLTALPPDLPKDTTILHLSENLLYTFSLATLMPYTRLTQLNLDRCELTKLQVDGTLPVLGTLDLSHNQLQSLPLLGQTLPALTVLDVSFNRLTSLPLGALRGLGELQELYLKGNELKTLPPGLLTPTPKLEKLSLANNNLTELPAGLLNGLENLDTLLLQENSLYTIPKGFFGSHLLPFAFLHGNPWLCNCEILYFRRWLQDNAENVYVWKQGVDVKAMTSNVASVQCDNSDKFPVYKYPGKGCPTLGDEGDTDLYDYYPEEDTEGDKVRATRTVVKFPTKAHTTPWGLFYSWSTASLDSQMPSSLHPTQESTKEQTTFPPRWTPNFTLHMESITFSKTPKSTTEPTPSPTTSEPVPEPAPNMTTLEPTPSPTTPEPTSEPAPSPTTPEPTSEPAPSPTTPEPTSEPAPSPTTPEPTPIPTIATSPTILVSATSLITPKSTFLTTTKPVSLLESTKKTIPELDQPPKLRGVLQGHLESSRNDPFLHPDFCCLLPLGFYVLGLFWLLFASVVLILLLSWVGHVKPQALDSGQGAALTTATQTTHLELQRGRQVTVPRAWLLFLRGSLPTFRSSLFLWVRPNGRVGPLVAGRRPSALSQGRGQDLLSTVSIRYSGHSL

On to HIP1 antibody, for which the ristocetin agglutination reaction of human peripheral blood platelets (maximum light transmission) is > 10 µg/mL.
